# US11643670B2, “Methods of enhancing chromosomal homologous recombination” (Massachusetts Institute of Technology, priority 2018, dated 2023)
# B1: RAD51: recombinant human strand exchange protein RAD51 (Creative Biomart RAD51-134H), transcript variant 4 (protein, UniProt Q06609 2-339, looked up)
# DNA repair protein RAD51 …: AMQMQLEANADTSVEEESFGPQPISRLEQCGINANDVKKLEEAGFHTVEAVAYAPKKELINIKGISEAKADKILAEAAKLVPMGFTTATEFHQRRSEIIQITTGSKELDKLLQGGIETGSITEMFGEFRTGKTQICHTLAVTCQLPIDRGGGEGKAMYIDTEGTFRPERLLAVAERYGLSGSDVLDNVAYARAFNTDHQTQLLYQASAMMVESRYALLIVDSATALYRTDYSGRGELSARQMHLARFLRMLLRLADEFGVAVVITNQVVAQVDGAAMFAADPKKPIGGNIIAHASTTRLYLRKGRGETRICKIYDSPCLPEAEAMFAINADGVGDAKD
# Tested on: R1684H locus
# Assay: Genotyping of F1 offspring of F0 Chd2^R1684H/R1684H animals made by the IVF strategy
# Type: in vivo, mouse
# Conditions: F0 homozygotes (IVF strategy including RAD51) crossed with wildtype C57Bl/6N
# Description: Tail snips (˜0.5 cm length) were collected from animals, placed in 75 μL alkaline lysis buffer (25 mM NaOH, 0.2 mM EDTA), and incubated at 95° C. for 30 minutes. Digestion was stopped via addition of 75 μL neutralization buffer (40 mM Tris-HCl pH 5.0). Samples were stored at 4° C. until genotyping.
# Chd2^R1684H genotyping was performed via a two-step, nested approach. Except for experiments described in FIGS. 3A-3G, all 8 μL of embryo DNA were used as input for the initial, long round of PCR. Genotyping of mouse pups and adult animals was performed using 2 μL of purified tail DNA. For all embryo genotyping, reactions mixtures were set up in a UV-sterilized laminar flow hood using sterile reagents and filter tips to avoid contamination. All PCR was performed using Biolase DNA Polymerase (Bioline), fresh aliquots of dNTPs (New England Biolabs), and 2% DMSO (final concentration). Primer pair #1 was used for FIGS. 1A-1E, FIGS. 2A-2E, FIGS. 3A-3G, FIG. 5, FIGS. 7A-7C, FIG. 8, and FIG. 9. All other experiments utilized primer pair #2 to further rule out large deletions that could disrupt primer binding sites. 20 cycles of amplification were performed using 30 second extension and annealing times and an annealing temperature of 67° C. Nested PCR was then performed using 2 μL of the initial 25 μL PCR reaction as input. […]
molecule,measurement,value
B1,F1 offspring heterozygous for the R1684H mutation,100%
